Patent US20230212549A1, “COMPOUNDS COMPRISING A […] LIGAND AND USE THEREOF” (priority 2021, published 2023)
Numbered stars: 1 amine (or outer) side, 2 acyl side, 3 side chain; on linkers, the order of the positions; unused ones are H or OH. Bridge positions count the residues as written; N and C are the ends. Square brackets hold non-standard residues; d marks the D form. Primed or numbered codes have the meaning given here. Side chains are listed from the residue outwards. * marks the point of attachment. tMeBn(DOTA-PP) = 1,3,5-trimethylbenzylidene, two thioethers to Cys, third CH2 bound to one N of piperazine whose other N bears DOTA, O=C(O)CN1CCN(CC(=O)O)CCN(CC(=O)N2CCN(Cc3cc(C[*:1])cc(C[*:2])c3)CC2)CCN(CC(=O)O)CC1; Bip = N[C@@H](Cc1ccc(-c2ccccc2)cc1)C(=O)O; Met(O2) = CS(=O)(=O)CC[C@H](N)C(=O)O; mXylylene = c1cc(C[*:1])cc(C[*:2])c1; NMeE = CN[C@@H](CCC(=O)O)C(=O)O; DOTA′ = not defined here; Nphe = O=C(O)CNCc1ccccc1; Apr = not defined here; Hexanoyl = CCCCCC(=O)*

B1: Hex-[Cys(3MeBn)-Nphe-Pro-Thr-Gln-Phe-Cys]-NH2 (peptide)
peptide: Hexanoyl-C[Nphe]PTQFC-NH2
modifications: linker 1-7 via mXylylene
SMILES: CCCCCC(=O)N[C@H]1CSCc2cccc(c2)CSC[C@@H](C(N)=O)NC(=O)[C@H](Cc2ccccc2)NC(=O)[C@H](CCC(N)=O)NC(=O)[C@H]([C@@H](C)O)NC(=O)[C@@H]2CCCN2C(=O)CN(Cc2ccccc2)C1=O
B2: Hex-[Cys(tMeBn(DOTA-PP))-Pro-Thr-Pro-Phe-Gln-Cys]-Asp-NH2 (peptide)
peptide: Hexanoyl-CPTPFQCD-NH2
modifications: linker 1-7 via tMeBn(DOTA-PP)
SMILES: CCCCCC(=O)N[C@H]1CSCc2cc(cc(CN3CCN(C(=O)CN4CCN(CC(=O)O)CCN(CC(=O)O)CCN(CC(=O)O)CC4)CC3)c2)CSC[C@@H](C(=O)N[C@@H](CC(=O)O)C(N)=O)NC(=O)[C@H](CCC(N)=O)NC(=O)[C@H](Cc2ccccc2)NC(=O)[C@@H]2CCCN2C(=O)[C@H]([C@@H](C)O)NC(=O)[C@@H]2CCCN2C1=O
B3: Hex-[Cys(3MeBn)-Pro-Pro-Thr-Glu(NH-Apr-DOTA′)-Phe-Cys]-Asp-NH2 (peptide)
peptide: Hexanoyl-CPPTE([Apr-DOTA′])FCD-NH2
modifications: linker 1-7 via mXylylene; reading uncertain; also: printed as Hex-[Cys(3MeBn)-Pro-Pro-Thr-Glu(NH-Apr-DOTA′)-Phe-Cys]-Asp-NH2
B4: Hex-[Cys(3MeBn)-Pro-Pro-Thr-Glu-Bip-Cys]-NH2 (peptide)
peptide: Hexanoyl-CPPTE[Bip]C-NH2
modifications: linker 1-7 via mXylylene
SMILES: CCCCCC(=O)N[C@H]1CSCc2cccc(c2)CSC[C@@H](C(N)=O)NC(=O)[C@H](Cc2ccc(-c3ccccc3)cc2)NC(=O)[C@H](CCC(=O)O)NC(=O)[C@H]([C@@H](C)O)NC(=O)[C@@H]2CCCN2C(=O)[C@@H]2CCCN2C1=O
B5: Hex-[Cys(3MeBn)-Pro-Pro-Thr-Ala-Phe-Cys]-NH2 (peptide)
peptide: Hexanoyl-CPPTAFC-NH2
modifications: linker 1-7 via mXylylene
SMILES: CCCCCC(=O)N[C@H]1CSCc2cccc(c2)CSC[C@@H](C(N)=O)NC(=O)[C@H](Cc2ccccc2)NC(=O)[C@H](C)NC(=O)[C@H]([C@@H](C)O)NC(=O)[C@@H]2CCCN2C(=O)[C@@H]2CCCN2C1=O
B6: Hex-[Cys(3MeBn)-Pro-Pro-Thr-Moo-Phe-Cys]-NH2 (peptide)
peptide: Hexanoyl-CPPT[Met(O2)]FC-NH2
modifications: linker 1-7 via mXylylene
SMILES: CCCCCC(=O)N[C@H]1CSCc2cccc(c2)CSC[C@@H](C(N)=O)NC(=O)[C@H](Cc2ccccc2)NC(=O)[C@H](CCS(C)(=O)=O)NC(=O)[C@H]([C@@H](C)O)NC(=O)[C@@H]2CCCN2C(=O)[C@@H]2CCCN2C1=O
B7: Hex-[Cys(3MeBn)-Pro-Pro-Thr-Nme-Phe-Cys]-NH2 (peptide)
peptide: Hexanoyl-CPPT[NMeE]FC-NH2
modifications: linker 1-7 via mXylylene
SMILES: CCCCCC(=O)N[C@H]1CSCc2cccc(c2)CSC[C@@H](C(N)=O)NC(=O)[C@H](Cc2ccccc2)NC(=O)[C@H](CCC(=O)O)N(C)C(=O)[C@H]([C@@H](C)O)NC(=O)[C@@H]2CCCN2C(=O)[C@@H]2CCCN2C1=O
B8: Hex-[Cys(3MeBn)-Pro-Pro-Ala-Glu-Phe-Cys]-NH2 (peptide)
peptide: Hexanoyl-CPPAEFC-NH2
modifications: linker 1-7 via mXylylene
SMILES: CCCCCC(=O)N[C@H]1CSCc2cccc(c2)CSC[C@@H](C(N)=O)NC(=O)[C@H](Cc2ccccc2)NC(=O)[C@H](CCC(=O)O)NC(=O)[C@H](C)NC(=O)[C@@H]2CCCN2C(=O)[C@@H]2CCCN2C1=O
B9: Hex-[Cys(3MeBn)-Pro-Pro-Thr-Glu-Nphe-Cys]-NH2 (peptide)
peptide: Hexanoyl-CPPTE[Nphe]C-NH2
modifications: linker 1-7 via mXylylene
SMILES: CCCCCC(=O)N[C@H]1CSCc2cccc(c2)CSC[C@@H](C(N)=O)NC(=O)CN(Cc2ccccc2)C(=O)[C@H](CCC(=O)O)NC(=O)[C@H]([C@@H](C)O)NC(=O)[C@@H]2CCCN2C(=O)[C@@H]2CCCN2C1=O
B10: Hex-[Cys(3MeBn)-Ala-Pro-Thr-Glu-Phe-Cys]-NH2 (peptide)
peptide: Hexanoyl-CAPTEFC-NH2
modifications: linker 1-7 via mXylylene
SMILES: CCCCCC(=O)N[C@H]1CSCc2cccc(c2)CSC[C@@H](C(N)=O)NC(=O)[C@H](Cc2ccccc2)NC(=O)[C@H](CCC(=O)O)NC(=O)[C@H]([C@@H](C)O)NC(=O)[C@@H]2CCCN2C(=O)[C@H](C)NC1=O
B11: Hex-[Cys(3MeBn)-Pro-Pro-Thr-Glu-Ala-Cys]-NH2 (peptide)
peptide: Hexanoyl-CPPTEAC-NH2
modifications: linker 1-7 via mXylylene
SMILES: CCCCCC(=O)N[C@H]1CSCc2cccc(c2)CSC[C@@H](C(N)=O)NC(=O)[C@H](C)NC(=O)[C@H](CCC(=O)O)NC(=O)[C@H]([C@@H](C)O)NC(=O)[C@@H]2CCCN2C(=O)[C@@H]2CCCN2C1=O

molecular target: human fibroblast activation protein (FAP) on WI-38 fibroblasts (human) (UniProt Q12884); assay: competitive FACS, WI-38 cells, Cy5-labeled peptide as competitor; conditions: not given

Row | pIC50 Category (FACS) | Binder
1 | < 6 pIC50 | B1
2 | < 6 pIC50 | B2

molecular target: fibroblast activation protein (FAP) on FAP-expressing human WI-38 fibroblasts (human) (UniProt Q12884); assay: competitive FACS, WI-38 cells, vs Cy5 tracer m3; D = pIC50 <=6.0; conditions: not given

Row | pIC50 Category (FACS) | Binder
3 | < 6 pIC50 | B3
4 | < 6 pIC50 | B4
5 | < 6 pIC50 | B5
6 | < 6 pIC50 | B6
7 | < 6 pIC50 | B7
8 | < 6 pIC50 | B8
9 | < 6 pIC50 | B9

molecular target: fibroblast activation protein (FAP) on FAP-expressing human WI-38 fibroblasts (human), Q12884; assay: as above; conditions: remark: other sources report otherwise

Row | pIC50 Category (FACS) | Binder
10 | < 6 pIC50 | B10
11 | < 6 pIC50 | B11
